Data published in patent US5976495A, “Peptide derived radionuclide chelators” (Resolution Pharmaceuticals, Inc., priority 1996, dated 1999).
No end group written: not given here. *: point of attachment. Acm = CC(=O)NC*

System: focal inflammation in the leg (zymosan-injected left hindleg)
Assay type: in vivo, male Wistar rats
Details: rat; for Fluid:Blood (inflammatory exudate:blood) / Inflam:Uninfl (inflamed:uninflamed muscle, target to background ratio): i.v. via tail vein, 30 minutes, average of two rats; for Inflam:Uninfl (inflamed:uninflamed muscle, target to background ratio): corrected for residual dose in the tail; for GI Tract (% dose) / Liver (% dose) / Urine (% dose): in vivo, iv
Experimental: Rat inflammation studies were performed as follows.
Serial whole-body scintigrams were acquired at 30 minutes.

Question: “N,N-dimethylGly-Thr-Cys(Acm)-Gly-Thr-Lys-Pro-Pro-Arg ({N,N‑dimethyl}-GTC(Acm)GTKPPR)” was tested. Which “Fluid:Blood (inflammatory exudate:blood)” value did it give?
Answer: 1.6

Question: And the “Inflam:Uninfl (inflamed:uninflamed muscle, target to background ratio)” value?
Answer: 4.6

Question: And the “GI Tract (% dose)” value?
Answer: 2.5 % dose

Question: And the “Liver (% dose)” value?
Answer: 2.4 % dose

Question: With “N,N-dibenzylGly-Ser-Cys(Acm)-Gly-Thr-Lys-Pro-Pro-Arg ({N,N‑dibenzyl}-GSC(Acm)GTKPPR)” as the substance, how does the “Fluid:Blood (inflammatory exudate:blood)” value read?
Answer: 0.4

Question: And the “Inflam:Uninfl (inflamed:uninflamed muscle, target to background ratio)” value?
Answer: 3.7

Question: What about the “GI Tract (% dose)” value of the same substance?
Answer: 7.5 % dose

Question: What about the “Liver (% dose)” value of the same substance?
Answer: 2.3 % dose

Question: What about the “Urine (% dose)” value of the same substance?
Answer: 55.1 % dose

Question: Which results are given for “N,N-dimethylGly-Ser-Cys(Acm)-Gly-Thr-Lys-Pro-Pro-Arg ({N,N‑dimethyl}-GSC(Acm)GTKPPR)”?
Answer: Fluid:Blood (inflammatory exudate:blood): 1.9; Inflam:Uninfl (inflamed:uninflamed muscle, target to background ratio): 5.3; GI Tract (% dose): 2.8 % dose; Liver (% dose): 2.4 % dose; Urine (% dose): 63.5 % dose
